Patent publication US20210388110A1 (published 2021)

B1: TR01H082-E22Hh/none-Hi-Kn010G3/L0272-k0 (antibody, human IgG1, kappa, L234A L235A, N297A)
heavy: QVQLVESGGGLVQPGRSLRLSCAASGFTFSNAWMHWVRQAPGKGLEWVAQIKDKSQNYATYYAESVKGRFTISRDDSKNSLYLQMNSLKTEDTAVYYCRYVHYAAGYGVDAWGQGTTVTVSSASTKGPSVFPLAPSSKSTSGGTAALGCLVKDYFPEPVTVSWNSGALTSGVHTFPAVLQSSGLYSLSSVVTVPSSSLGTQTYICNVNHKPSNTKVDKKVEPKSCDKTHTCPPCPAPEAAGGPSVFLFPPKPKDTLMISRTPEVTCVVVDVSHEDPEVKFNWYVDGVEVHNAKTKPREEQYASTYRVVSVLTVLHQDWLNGKEYKCKVSNKALPAPIEKTISKAKGQPREPQVYTLPPSRCELTKNQVSLSCAVKGFYPSDIAVEWESNGQPENNYKTTPPVLDSDGSFFLVSKLTVDKSRWQQGNVFSCSVMHEALHNHYTQKSLSLSPDYKDDDDK
chain: EPKSSDKTHTCPPCPAPELLGGPSVFLFPPKPKDTLMISRTPEVTCVVVDVSHEDPEVKFNWYVDGVEVHNAKTKPREEQYNSTYRVVSVLTVLHQDWLNGKEYKCKVSNKALPAPIEKTISKAKGQPREPQVCTLPPSRDELTKNQVSLWCLVKGFYPSDIAVEWESNGQPENNYKTTPPVLDSDGSFFLYSKLTVDKSRWQQGNVFSCSVMHEALHNRYTQKSLSLSP
light: DIVMTQSPLSLPVTPGEPASISCRSSQPLVHSNRQTYLHWYQQKPGQAPRLLIYKVSNRFSGVPDRFSGSGSGTDFTLKISRVEAEDVGVYYCGQGTQVPYTFGQGTKLEIKRTVAAPSVFIFPPSDEQLKSGTASVVCLLNNFYPREAKVQWKVDNALQSGNSQESVTEQDSKDSTYSLSSTLTLSKADYEKHKVYACEVTHQGLSSPVTKSFNRGEC
notes: one-arm antibody (single Fab) with Fab-less hinge-Fc chain Hi-Kn010G3
B2: TR01H082-E22Hh/none-Hi-Kn010G3/TR01L017-k0 (antibody, human IgG1, kappa, L234A L235A, N297A)
heavy: QVQLVESGGGLVQPGRSLRLSCAASGFTFSNAWMHWVRQAPGKGLEWVAQIKDKSQNYATYYAESVKGRFTISRDDSKNSLYLQMNSLKTEDTAVYYCRYVHYAAGYGVDAWGQGTTVTVSSASTKGPSVFPLAPSSKSTSGGTAALGCLVKDYFPEPVTVSWNSGALTSGVHTFPAVLQSSGLYSLSSVVTVPSSSLGTQTYICNVNHKPSNTKVDKKVEPKSCDKTHTCPPCPAPEAAGGPSVFLFPPKPKDTLMISRTPEVTCVVVDVSHEDPEVKFNWYVDGVEVHNAKTKPREEQYASTYRVVSVLTVLHQDWLNGKEYKCKVSNKALPAPIEKTISKAKGQPREPQVYTLPPSRCELTKNQVSLSCAVKGFYPSDIAVEWESNGQPENNYKTTPPVLDSDGSFFLVSKLTVDKSRWQQGNVFSCSVMHEALHNHYTQKSLSLSPDYKDDDDK
chain: EPKSSDKTHTCPPCPAPELLGGPSVFLFPPKPKDTLMISRTPEVTCVVVDVSHEDPEVKFNWYVDGVEVHNAKTKPREEQYNSTYRVVSVLTVLHQDWLNGKEYKCKVSNKALPAPIEKTISKAKGQPREPQVCTLPPSRDELTKNQVSLWCLVKGFYPSDIAVEWESNGQPENNYKTTPPVLDSDGSFFLYSKLTVDKSRWQQGNVFSCSVMHEALHNRYTQKSLSLSP
light: DIVMTQSPLSLPVTPGEPASISCRSSQSPVHSNRNTYIQWYLQKPGQSPQLLIYKVSNRFSGVPDRFSGSGSGTDFTLKISRVEAEDVGVYYCYQGTQVPYTFGQGTKLEIKRTVAAPSVFIFPPSDEQLKSGTASVVCLLNNFYPREAKVQWKVDNALQSGNSQESVTEQDSKDSTYSLSSTLTLSKADYEKHKVYACEVTHQGLSSPVTKSFNRGEC
notes: as for B1
B3: TR01H082-E22Hh/none-Hi-Kn010G3/TR01L020-k0 (antibody, human IgG1, kappa, L234A L235A, N297A)
heavy: QVQLVESGGGLVQPGRSLRLSCAASGFTFSNAWMHWVRQAPGKGLEWVAQIKDKSQNYATYYAESVKGRFTISRDDSKNSLYLQMNSLKTEDTAVYYCRYVHYAAGYGVDAWGQGTTVTVSSASTKGPSVFPLAPSSKSTSGGTAALGCLVKDYFPEPVTVSWNSGALTSGVHTFPAVLQSSGLYSLSSVVTVPSSSLGTQTYICNVNHKPSNTKVDKKVEPKSCDKTHTCPPCPAPEAAGGPSVFLFPPKPKDTLMISRTPEVTCVVVDVSHEDPEVKFNWYVDGVEVHNAKTKPREEQYASTYRVVSVLTVLHQDWLNGKEYKCKVSNKALPAPIEKTISKAKGQPREPQVYTLPPSRCELTKNQVSLSCAVKGFYPSDIAVEWESNGQPENNYKTTPPVLDSDGSFFLVSKLTVDKSRWQQGNVFSCSVMHEALHNHYTQKSLSLSPDYKDDDDK
chain: EPKSSDKTHTCPPCPAPELLGGPSVFLFPPKPKDTLMISRTPEVTCVVVDVSHEDPEVKFNWYVDGVEVHNAKTKPREEQYNSTYRVVSVLTVLHQDWLNGKEYKCKVSNKALPAPIEKTISKAKGQPREPQVCTLPPSRDELTKNQVSLWCLVKGFYPSDIAVEWESNGQPENNYKTTPPVLDSDGSFFLYSKLTVDKSRWQQGNVFSCSVMHEALHNRYTQKSLSLSP
light: DIVMTQSPLSLPVTPGEPASISCQASESPVHSNRNTYIQWYLQKPGQSPQLLIYKVSNRFSGVPDRFSGSGSGTDFTLKISRVEAEDVGVYYCYQGTQVPYTFGQGTKLEIKRTVAAPSVFIFPPSDEQLKSGTASVVCLLNNFYPREAKVQWKVDNALQSGNSQESVTEQDSKDSTYSLSSTLTLSKADYEKHKVYACEVTHQGLSSPVTKSFNRGEC
notes: as for B1
B4: TR01H090-E22Hh/none-Hi-Kn010G3/L0011-k0 (antibody, human IgG1, kappa, L234A L235A, N297A)
heavy: QVQLVESGGGLVQPGGSLRLSCAASGFTFSNAWMHWVRQAPGKGLEWVAQIKDKSQNYATYYAESVKGRFTISRDDSKNSLYLQMNSLKTEDTAVYYCRYVHYAAGYGVDAWGQGTTVTVSSASTKGPSVFPLAPSSKSTSGGTAALGCLVKDYFPEPVTVSWNSGALTSGVHTFPAVLQSSGLYSLSSVVTVPSSSLGTQTYICNVNHKPSNTKVDKKVEPKSCDKTHTCPPCPAPEAAGGPSVFLFPPKPKDTLMISRTPEVTCVVVDVSHEDPEVKFNWYVDGVEVHNAKTKPREEQYASTYRVVSVLTVLHQDWLNGKEYKCKVSNKALPAPIEKTISKAKGQPREPQVYTLPPSRCELTKNQVSLSCAVKGFYPSDIAVEWESNGQPENNYKTTPPVLDSDGSFFLVSKLTVDKSRWQQGNVFSCSVMHEALHNHYTQKSLSLSPDYKDDDDK
chain: EPKSSDKTHTCPPCPAPELLGGPSVFLFPPKPKDTLMISRTPEVTCVVVDVSHEDPEVKFNWYVDGVEVHNAKTKPREEQYNSTYRVVSVLTVLHQDWLNGKEYKCKVSNKALPAPIEKTISKAKGQPREPQVCTLPPSRDELTKNQVSLWCLVKGFYPSDIAVEWESNGQPENNYKTTPPVLDSDGSFFLYSKLTVDKSRWQQGNVFSCSVMHEALHNRYTQKSLSLSP
light: DIVMTQSPLSLPVTPGEPASISCRSSQPLVHSNRNTYLHWYQQKPGQAPRLLIYKVSNRFSGVPDRFSGSGSGTDFTLKISRVEAEDVGVYYCGQGTQVPYTFGQGTKLEIKRTVAAPSVFIFPPSDEQLKSGTASVVCLLNNFYPREAKVQWKVDNALQSGNSQESVTEQDSKDSTYSLSSTLTLSKADYEKHKVYACEVTHQGLSSPVTKSFNRGEC
notes: as for B1
B5: TR01H091-E22Hh/none-Hi-Kn010G3/L0011-k0 (antibody, human IgG1, kappa, L234A L235A, N297A)
heavy: QVQLVESGGGLVQPGRSLKLSCAASGFTFSNAWMHWVRQAPGKGLEWVAQIKDKSQNYATYYAESVKGRFTISRDDSKNSLYLQMNSLKTEDTAVYYCRYVHYAAGYGVDAWGQGTTVTVSSASTKGPSVFPLAPSSKSTSGGTAALGCLVKDYFPEPVTVSWNSGALTSGVHTFPAVLQSSGLYSLSSVVTVPSSSLGTQTYICNVNHKPSNTKVDKKVEPKSCDKTHTCPPCPAPEAAGGPSVFLFPPKPKDTLMISRTPEVTCVVVDVSHEDPEVKFNWYVDGVEVHNAKTKPREEQYASTYRVVSVLTVLHQDWLNGKEYKCKVSNKALPAPIEKTISKAKGQPREPQVYTLPPSRCELTKNQVSLSCAVKGFYPSDIAVEWESNGQPENNYKTTPPVLDSDGSFFLVSKLTVDKSRWQQGNVFSCSVMHEALHNHYTQKSLSLSPDYKDDDDK
chain: EPKSSDKTHTCPPCPAPELLGGPSVFLFPPKPKDTLMISRTPEVTCVVVDVSHEDPEVKFNWYVDGVEVHNAKTKPREEQYNSTYRVVSVLTVLHQDWLNGKEYKCKVSNKALPAPIEKTISKAKGQPREPQVCTLPPSRDELTKNQVSLWCLVKGFYPSDIAVEWESNGQPENNYKTTPPVLDSDGSFFLYSKLTVDKSRWQQGNVFSCSVMHEALHNRYTQKSLSLSP
light: DIVMTQSPLSLPVTPGEPASISCRSSQPLVHSNRNTYLHWYQQKPGQAPRLLIYKVSNRFSGVPDRFSGSGSGTDFTLKISRVEAEDVGVYYCGQGTQVPYTFGQGTKLEIKRTVAAPSVFIFPPSDEQLKSGTASVVCLLNNFYPREAKVQWKVDNALQSGNSQESVTEQDSKDSTYSLSSTLTLSKADYEKHKVYACEVTHQGLSSPVTKSFNRGEC
notes: as for B1
B6: TR01H092-E22Hh/none-Hi-Kn010G3/L0011-k0 (antibody, human IgG1, kappa, L234A L235A, N297A)
heavy: QVQLVESGGGLVQPGRSLRLSCAASGFTFSNAWMHWVRQAPGKGLEWVAQIKDKSQNYATYYAESVAGRFTISRDDSKNSLYLQMNSLKTEDTAVYYCRYVHYAAGYGVDAWGQGTTVTVSSASTKGPSVFPLAPSSKSTSGGTAALGCLVKDYFPEPVTVSWNSGALTSGVHTFPAVLQSSGLYSLSSVVTVPSSSLGTQTYICNVNHKPSNTKVDKKVEPKSCDKTHTCPPCPAPEAAGGPSVFLFPPKPKDTLMISRTPEVTCVVVDVSHEDPEVKFNWYVDGVEVHNAKTKPREEQYASTYRVVSVLTVLHQDWLNGKEYKCKVSNKALPAPIEKTISKAKGQPREPQVYTLPPSRCELTKNQVSLSCAVKGFYPSDIAVEWESNGQPENNYKTTPPVLDSDGSFFLVSKLTVDKSRWQQGNVFSCSVMHEALHNHYTQKSLSLSPDYKDDDDK
chain: EPKSSDKTHTCPPCPAPELLGGPSVFLFPPKPKDTLMISRTPEVTCVVVDVSHEDPEVKFNWYVDGVEVHNAKTKPREEQYNSTYRVVSVLTVLHQDWLNGKEYKCKVSNKALPAPIEKTISKAKGQPREPQVCTLPPSRDELTKNQVSLWCLVKGFYPSDIAVEWESNGQPENNYKTTPPVLDSDGSFFLYSKLTVDKSRWQQGNVFSCSVMHEALHNRYTQKSLSLSP
light: DIVMTQSPLSLPVTPGEPASISCRSSQPLVHSNRNTYLHWYQQKPGQAPRLLIYKVSNRFSGVPDRFSGSGSGTDFTLKISRVEAEDVGVYYCGQGTQVPYTFGQGTKLEIKRTVAAPSVFIFPPSDEQLKSGTASVVCLLNNFYPREAKVQWKVDNALQSGNSQESVTEQDSKDSTYSLSSTLTLSKADYEKHKVYACEVTHQGLSSPVTKSFNRGEC
notes: as for B1

Target: T1, soluble human CD3ε chain (human, UniProt P07766 23-126, limits assumed)
T1 construct: also called human CD3 epsilon chain
Test: SPR (Biacore), soluble human CD3ε chain

T1 sequence (P07766 23-126 limits assumed): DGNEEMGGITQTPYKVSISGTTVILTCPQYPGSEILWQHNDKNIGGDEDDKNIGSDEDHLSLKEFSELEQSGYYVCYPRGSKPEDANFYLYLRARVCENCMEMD

In order of falling Kd:
1. B2  109 nM
2. B3  106 nM
3. B1  74.4 nM
4. B6  72.1 nM
5. B4  69.5 nM
6. B5  66.7 nM
